Assay results from patent US20100196390A1 (RINAT NEUROSCIENCE, published 2010).
Substitutions are numbered along the chain they refer to.

B1: 4B12-23 (Fab, V domains shown)
VH: QVQLVQSGAEVKKPGASVKVSCKASGYTFTNYDIIWVRQAPGQGLEWMGYINPYNGRREYNEKFKGRVTMTRDTSTSTVYMELSSLRSEDTAVYYCARLLKYRAFRYYAIDYWGQGTTVTVSS
VL: DIQMTQSPSSLSASVGDRVTITCRASEPVYSNVAWYQQKPGKAPKLLIYAASNLQSGVPSRFSGSGSGTDYTFTISSLQPEDIATYYCQHFWGSPFTFGQGTKLEIK
notes: Fab
B2: 10-G2 (Fab, V domains shown)
VH: B1 VH with A104R
VL: B1 VL with P28A, V33L, Y71F
notes: Fab
B3: 7-B1 (Fab, V domains shown)
VH: B1 VH with D33V, I35L, G56D, R57G, R58T, E59K, A104R
VL: B1 VL with P28N, V33L, Y71F, G93Y, T97K
notes: Fab
B4: 5-B8 (Fab, V domains shown)
VH: B1 VH with D33V, I35L, G56D, R57G, R58T, E59K, A104R
VL: B1 VL with P28N, V33L, Y71F, H90Q, G93Y
notes: Fab
B5: 9-D6 (Fab, V domains shown)
VH: B1 VH with D33V, I35L, G56D, R57G, R58T, E59K, A104R, R106S, Y112V
VL: B1 VL with P28N, V33L, Y71F, W92S, G93Y
notes: Fab
B6: 9-D9 (Fab, V domains shown)
VH: B1 VH with D33V, I35L, G56D, R57G, R58T, E59K, A104R
VL: B1 VL with P28N, V33L, Y71F, G93Y, T97A
notes: Fab
B7: 6-H12 (Fab, V domains shown)
VH: B1 VH with D33V, I35L, G56D, R57G, R58T, E59K, A104R, R106S
VL: B1 VL with P28N, V33L, Y71F, G93H
notes: Fab
B8: 6-B4 (Fab, V domains shown)
VH: B1 VH with D33V, I35L, G56D, R57G, R58T, E59K, A104R, R106Q
VL: B1 VL with P28N, V33L, Y71F, G93Y
notes: Fab
B9: 5-E2 (Fab, V domains shown)
VH: B1 VH with D33V, I35L, G56D, R57G, R58T, E59K, A104R, R106K
VL: B1 VL with P28N, V33L, Y71F, G93Y
notes: Fab
B10: 7-B8 (Fab, V domains shown)
VH: B1 VH with D33V, I35L, G56D, R57G, R58T, E59K, A104R
VL: B1 VL with P28N, V33L, Y71F, G93Y, F96C
notes: Fab
B11: 8-G2 (Fab, V domains shown)
VH: B1 VH with D33V, I35L, G56D, R57G, R58T, E59K, A104R, Y107F
VL: B1 VL with P28N, V33L, Y71F, W92G, G93Y, T97I
notes: Fab
B12: 9-D11 (Fab, V domains shown)
VH: B1 VH with D33V, I35L, G56D, R57G, R58T, E59K, A104R, R106K
VL: B1 VL with P28N, V33L, Y71F, G93M
notes: Fab
B13: 5-F1 (Fab, V domains shown)
VH: B1 VH with D33V, I35L, G56D, R57G, R58T, E59K, A104R, R106K
VL: B1 VL with P28N, V33L, Y71F, G93Y, T97L
notes: Fab
B14: 10-B9 (Fab, V domains shown)
VH: B1 VH with G56D, R57G, E59K, Y60E, A104R
VL: B1 VL with V33L, Y71F
notes: Fab
B15: 4B12-26 (Fab, V domains shown)
VH: B1 VH with A104R, R106A
VL: B1 VL
notes: Fab
B16: 8-D2 (Fab, V domains shown)
VH: B1 VH with D33V, I35L, G56D, R57G, R58T, E59K, A104R, R106S, I110A
VL: B1 VL with P28N, V33L, Y71F, H90N, G93Y
notes: Fab
B17: 4B12-28 (Fab, V domains shown)
VH: B1 VH with A104R, F105E
VL: B1 VL
notes: Fab
B18: 10-A7 (Fab, V domains shown)
VH: B1 VH with A104R
VL: B1 VL with P28N, N32H, V33L, Y71F, G93Y
notes: Fab
B19: 4B12-25 (Fab, V domains shown)
VH: B1 VH with K101R, A104R
VL: B1 VL
notes: Fab
B20: 10-F12 (Fab, V domains shown)
VH: B1 VH with A104R
VL: B1 VL with P28N, S31R, V33L, Y71F
notes: Fab
B21: 10-E10 (Fab, V domains shown)
VH: B1 VH with G56D, R57G, E59K, Y60E, A104R
VL: B1 VL with P28N, V33L, Y71F
notes: Fab
B22: 8-C8 (Fab, V domains shown)
VH: B1 VH with D33V, I35L, G56D, R57G, R58T, E59K, A104R
VL: B1 VL with P28N, V33L, Y71F, G93Y, T97G
notes: Fab
B23: 6-E10 (Fab, V domains shown)
VH: B1 VH with D33V, I35L, G56D, R57G, R58T, E59K, A104P, R106S
VL: B1 VL with P28N, V33L, Y71F, W92S, G93L
notes: Fab
B24: 10-C7 (Fab, V domains shown)
VH: B1 VH with Y50H, A104R
VL: B1 VL with P28S, V33L, Y71F, W92V, G93Y
notes: Fab
B25: 5-G4 (Fab, V domains shown)
VH: B1 VH with D33V, I35L, G56D, R57G, R58T, E59K, A104R, R106S
VL: B1 VL with P28N, V33L, Y71F
notes: Fab
B26: 5-B2 (Fab, V domains shown)
VH: B1 VH with D33V, I35L, G56D, R57G, R58T, E59K, A104R, R106S
VL: B1 VL with P28N, V33L, Y71F, W92D, G93Y
notes: Fab
B27: 9-G8 (Fab, V domains shown)
VH: B1 VH with D33V, I35L, G56D, R57G, R58T, E59K, A104R, R106S
VL: B1 VL with P28N, V33L, Y71F, G93Y, T97W
notes: Fab
B28: 7-B9 (Fab, V domains shown)
VH: B1 VH with D33V, I35L, G56D, R57G, R58T, E59K, A104R, R106S, Y112V
VL: B1 VL with P28N, V33L, Y71F, G93Y, F96W
notes: Fab
B29: 6-A6 (Fab, V domains shown)
VH: B1 VH with D33V, I35L, G56D, R57G, R58T, E59K, A104R, R106K
VL: B1 VL with P28N, V33L, Y71F, G93Y, T97V
notes: Fab
B30: 6-C10 (Fab, V domains shown)
VH: B1 VH with D33V, I35L, G56D, R57G, R58T, E59K, A104R
VL: B1 VL with P28N, V33L, Y71F, G93Y, P95W
notes: Fab
B31: 5-D1 (Fab, V domains shown)
VH: B1 VH with D33V, I35L, G56D, R57G, R58T, E59K, A104R, Y112V
VL: B1 VL with P28N, V33L, Y71F, H90N, G93Y
notes: Fab
B32: 7-F1 (Fab, V domains shown)
VH: B1 VH with D33V, I35L, G56D, R57G, R58T, E59K, A104R
VL: B1 VL with P28N, V33L, Y71F, H90N, G93Y
notes: Fab
B33: 4B12-24 (Fab, V domains shown)
VH: B1 VH with A104R, R106S
VL: B1 VL
notes: Fab
B34: 7-C11 (Fab, V domains shown)
VH: B1 VH with D33V, I35L, G56D, R57G, R58T, E59K, A104R, R106S
VL: B1 VL with P28N, V33L, Y71F, W92K, G93Y
notes: Fab
B35: 5-B1 (Fab, V domains shown)
VH: B1 VH with D33V, I35L, G56D, R57G, R58T, E59K, A104R, R106T, D111H
VL: B1 VL with P28N, V33L, Y71F, G93Y
notes: Fab
B36: 10-A5 (Fab, V domains shown)
VH: B1 VH with G56D, R57G, R58T, E59K, A104R
VL: B1 VL with P28T, V33L, Y71F
notes: Fab
B37: 6-B11 (Fab, V domains shown)
VH: B1 VH with D33V, I35L, G56D, R57G, R58T, E59K, A104R, R106S
VL: B1 VL with P28N, V33L, Y71F, G93Q
notes: Fab
B38: 10-C10 (Fab, V domains shown)
VH: B1 VH with A104R
VL: B1 VL with P28N, S31R, V33L, Y71F, W92V, G93Y
notes: Fab
B39: 6-D12 (Fab, V domains shown)
VH: B1 VH with D33V, I35L, G56D, R57G, R58T, E59K, A104R
VL: B1 VL with P28N, V33L, Y71F, G93A
notes: Fab
B40: 8-B2 (Fab, V domains shown)
VH: B1 VH with D33V, I35L, G56D, R57G, R58T, E59K, A104R
VL: B1 VL with P28N, V33L, Y71F, W92Y, G93Y
notes: Fab
B41: 10-F10 (Fab, V domains shown)
VH: B1 VH with G56D, R57G, E59K, Y60E, A104R
VL: B1 VL with P28N, S31L, V33L, Y71F
notes: Fab
B42: 4B12-27 (Fab, V domains shown)
VH: B1 VH with Y102A, A104R
VL: B1 VL
notes: Fab
B43: 8-H7 (Fab, V domains shown)
VH: B1 VH with D33V, I35L, G56D, R57G, R58T, E59K, A104R, R106S, Y107F
VL: B1 VL with P28N, V33L, Y71F, W92V, G93Y
notes: Fab
B44: 4B12-29 (Fab, V domains shown)
VH: B1 VH with A104R, F105A
VL: B1 VL
notes: Fab
B45: 7-D1 (Fab, V domains shown)
VH: B1 VH with D33V, I35L, G56D, R57G, R58T, E59K, A104R, R106S, Y112V
VL: B1 VL with P28N, V33L, Y71F, G93Y, S94L
notes: Fab
B46: 10-D11 (Fab, V domains shown)
VH: B1 VH with A104R
VL: B1 VL with P28N, S31R, V33L, Y71F, G93Y
notes: Fab
B47: 10-F7 (Fab, V domains shown)
VH: B1 VH with A104R
VL: B1 VL with P28N, N32H, V33L, Y71F, W92V, G93Y
notes: Fab

biological target: TrkB (Homo sapiens (Human), UniProt Q16620 32-430); test: koff of Fab at 25 C; T1/2=Log2/koff
In short: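 Monovalent Fab fragments were tested at 25° C by surface plasmon resonance on a Biacore instrument, against TrkB extracellular-domain monomer amine-coupled to the chip at low capacity. Fabs were injected low to high as a 3-fold serial dilution from 100 nM for 84 sec, with a 10 minute dissociation after the top sample. The dissociation half-life was calculated from koff, which was fitted to a Langmuir binding model in BIAevaluation. The formula used was T1/2 = Log 2/koff.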

Chain of TrkB (Q16620 32-430 limits assumed): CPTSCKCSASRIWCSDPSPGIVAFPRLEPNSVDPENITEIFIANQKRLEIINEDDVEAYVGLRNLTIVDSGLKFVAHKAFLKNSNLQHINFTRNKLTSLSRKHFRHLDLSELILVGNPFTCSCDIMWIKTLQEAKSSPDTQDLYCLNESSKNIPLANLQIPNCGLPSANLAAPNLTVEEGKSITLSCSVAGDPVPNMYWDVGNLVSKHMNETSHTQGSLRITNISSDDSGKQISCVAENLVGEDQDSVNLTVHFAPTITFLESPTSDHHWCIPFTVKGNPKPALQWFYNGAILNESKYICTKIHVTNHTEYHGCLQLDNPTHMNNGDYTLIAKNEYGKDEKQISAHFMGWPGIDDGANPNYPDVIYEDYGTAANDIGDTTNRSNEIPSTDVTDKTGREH

T1/2	Binder
10.8 min	B1
5.2 min	B2
0.81 min	B3
1.82 min	B4
1.45 min	B5
1.54 min	B6
1.54 min	B7
1.55 min	B8
1.66 min	B9
1.18 min	B10
1.88 min	B11
1.55 min	B12
1.6 min	B13
4 min	B14
8.1 min	B15
1.81 min	B16
5.4 min	B17
3 min	B18
1.1 min	B19
5.7 min	B20
2.7 min	B21
1.78 min	B22
1.3 min	B23
4.1 min	B24

T1/2	Binder
1.35 min	B25
1.55 min	B26
1.13 min	B27
1.79 min	B28
1.59 min	B29
1.55 min	B30
1.61 min	B31
0.54 min	B32
6 min	B33
1.07 min	B34
1.36 min	B35
1 min	B36
1.44 min	B37
4.3 min	B38
1.7 min	B39
1.46 min	B40
4.1 min	B41
0.5 min	B42
1.18 min	B43
5.6 min	B44
0.7 min	B45
4.2 min	B46
4.9 min	B47
